This note sets out measurements from IntAct's records for PubMed 35512704.

Sequences and labels used below:
B1: Mothers against decapentaplegic homolog 4 (Homo sapiens), Q13485 (parent)
chain: MDNMSITNTPTSNDACLSIVHSLMCHRQGGESETFAKRAIESLVKKLKEKKDELDSLITAITTNGAHPSKCVTIQRTLDGRLQVAGRKGFPHVIYARLWRWPDLHKNELKHVKYCQYAFDLKCDSVCVNPYHYERVVSPGIDLSGLTLQSNAPSSMMVKDEYVHDFEGQPSLSTEGHSIQTIQHPPSNRASTETYSTPALLAPSESNATSTANFPNIPVASTSQPASILGGSHSEGLLQIASGPQPGQQQNGFTGQPATYHHNSTTTWTGSRTAPYTPNLPHHQNGHLQHHPPMPPHPGHYWPVHNELAFQPPISNHPAPEYWCSIAYFEMDVQVGETFKVPSSCPIVTVDGYVDPSGGDRFCLGQLSNVHRTEAIERARLHIGKGVQLECKGEGDVWVRCLSDHAVFVQSYYLDREAGRAPGDAVHKIYPSAYIKVFDLRQCHRQMQQQAATAQAAAAAQAAAVAGNIPGPGSVGGIAPAISLSAAAGIGVDDLRRLCILRMSFVKGWGPDYPRQSIKETPCWIEIHLHRALQLLDEVLHTMPIADPQPLD
partner: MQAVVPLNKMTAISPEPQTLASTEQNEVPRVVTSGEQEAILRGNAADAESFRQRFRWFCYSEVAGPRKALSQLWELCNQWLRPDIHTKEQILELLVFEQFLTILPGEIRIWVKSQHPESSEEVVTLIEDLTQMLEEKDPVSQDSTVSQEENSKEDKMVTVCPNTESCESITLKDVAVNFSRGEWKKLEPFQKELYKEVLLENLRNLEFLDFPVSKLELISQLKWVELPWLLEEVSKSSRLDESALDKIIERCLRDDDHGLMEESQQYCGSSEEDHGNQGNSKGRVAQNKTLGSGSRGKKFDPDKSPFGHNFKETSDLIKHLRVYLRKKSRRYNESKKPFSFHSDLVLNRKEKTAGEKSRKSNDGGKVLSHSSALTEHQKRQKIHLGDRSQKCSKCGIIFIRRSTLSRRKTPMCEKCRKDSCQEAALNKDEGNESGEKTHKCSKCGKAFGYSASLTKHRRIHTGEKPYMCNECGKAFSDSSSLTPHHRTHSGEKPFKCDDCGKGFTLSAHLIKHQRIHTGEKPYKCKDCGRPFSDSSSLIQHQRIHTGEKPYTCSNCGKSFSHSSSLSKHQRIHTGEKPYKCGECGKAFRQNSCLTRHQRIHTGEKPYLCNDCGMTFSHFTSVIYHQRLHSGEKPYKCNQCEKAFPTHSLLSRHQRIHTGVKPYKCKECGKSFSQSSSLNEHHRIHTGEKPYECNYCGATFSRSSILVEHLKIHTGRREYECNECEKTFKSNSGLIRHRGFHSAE
B2: Mothers against decapentaplegic homolog 4 (Homo sapiens), Q13485 (parent)
chain: B1 chain
partner: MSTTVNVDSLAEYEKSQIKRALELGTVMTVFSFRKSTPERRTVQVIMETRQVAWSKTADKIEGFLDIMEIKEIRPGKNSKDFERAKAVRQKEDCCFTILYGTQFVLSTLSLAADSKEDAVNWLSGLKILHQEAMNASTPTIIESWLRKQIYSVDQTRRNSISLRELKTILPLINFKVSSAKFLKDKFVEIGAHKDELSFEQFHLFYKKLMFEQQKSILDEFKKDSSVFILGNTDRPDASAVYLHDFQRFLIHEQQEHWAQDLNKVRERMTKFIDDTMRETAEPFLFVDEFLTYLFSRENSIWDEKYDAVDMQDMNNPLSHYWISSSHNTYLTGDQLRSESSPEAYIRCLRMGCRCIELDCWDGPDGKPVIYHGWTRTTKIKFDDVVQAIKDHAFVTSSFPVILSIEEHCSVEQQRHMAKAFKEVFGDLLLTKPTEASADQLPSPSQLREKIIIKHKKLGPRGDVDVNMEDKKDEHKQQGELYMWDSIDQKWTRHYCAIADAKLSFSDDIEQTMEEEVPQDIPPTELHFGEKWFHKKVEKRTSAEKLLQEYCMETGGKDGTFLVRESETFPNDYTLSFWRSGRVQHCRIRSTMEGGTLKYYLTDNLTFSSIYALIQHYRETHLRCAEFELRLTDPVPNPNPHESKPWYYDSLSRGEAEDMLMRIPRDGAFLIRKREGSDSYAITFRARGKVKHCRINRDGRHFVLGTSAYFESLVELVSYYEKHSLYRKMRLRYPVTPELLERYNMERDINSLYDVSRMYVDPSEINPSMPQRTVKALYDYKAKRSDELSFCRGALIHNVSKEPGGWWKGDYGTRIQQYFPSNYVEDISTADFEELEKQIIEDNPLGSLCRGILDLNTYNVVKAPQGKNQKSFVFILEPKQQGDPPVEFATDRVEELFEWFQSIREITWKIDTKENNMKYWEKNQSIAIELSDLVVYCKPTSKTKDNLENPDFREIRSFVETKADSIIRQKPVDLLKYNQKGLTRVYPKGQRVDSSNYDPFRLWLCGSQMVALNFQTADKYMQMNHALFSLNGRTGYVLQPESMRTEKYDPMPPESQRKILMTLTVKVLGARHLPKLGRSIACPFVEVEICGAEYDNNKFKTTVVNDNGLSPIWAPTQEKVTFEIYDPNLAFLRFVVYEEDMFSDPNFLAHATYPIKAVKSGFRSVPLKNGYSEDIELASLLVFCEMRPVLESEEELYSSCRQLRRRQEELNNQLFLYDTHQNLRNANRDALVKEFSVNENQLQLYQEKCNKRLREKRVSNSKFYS
B3: Mothers against decapentaplegic homolog 4 (Homo sapiens), Q13485 (parent)
chain: B1 chain
partner: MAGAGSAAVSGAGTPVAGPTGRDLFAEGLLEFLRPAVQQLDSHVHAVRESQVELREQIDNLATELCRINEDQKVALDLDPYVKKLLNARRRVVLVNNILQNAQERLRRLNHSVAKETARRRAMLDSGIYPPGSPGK
B4: Speckle-type POZ protein (Homo sapiens), O43791 (parent)
chain: MSRVPSPPPPAEMSSGPVAESWCYTQIKVVKFSYMWTINNFSFCREEMGEVIKSSTFSSGANDKLKWCLRVNPKGLDEESKDYLSLYLLLVSCPKSEVRAKFKFSILNAKGEETKAMESQRAYRFVQGKDWGFKKFIRRDFLLDEANGLLPDDKLTLFCEVSVVQDSVNISGQNTMNMVKVPECRLADELGGLWENSRFTDCCLCVAGQEFQAHKAILAARSPVFSAMFEHEMEESKKNRVEINDVEPEVFKEMMCFIYTGKAPNLDKMADDLLAAADKYALERLKVMCEDALCSNLSVENAAEILILADLHSADQLKTQAVDFINYHASDVLETSGWKSMVVSHPHLVAEAYRSLASAQCPFLGPPRKRLKQS
partner: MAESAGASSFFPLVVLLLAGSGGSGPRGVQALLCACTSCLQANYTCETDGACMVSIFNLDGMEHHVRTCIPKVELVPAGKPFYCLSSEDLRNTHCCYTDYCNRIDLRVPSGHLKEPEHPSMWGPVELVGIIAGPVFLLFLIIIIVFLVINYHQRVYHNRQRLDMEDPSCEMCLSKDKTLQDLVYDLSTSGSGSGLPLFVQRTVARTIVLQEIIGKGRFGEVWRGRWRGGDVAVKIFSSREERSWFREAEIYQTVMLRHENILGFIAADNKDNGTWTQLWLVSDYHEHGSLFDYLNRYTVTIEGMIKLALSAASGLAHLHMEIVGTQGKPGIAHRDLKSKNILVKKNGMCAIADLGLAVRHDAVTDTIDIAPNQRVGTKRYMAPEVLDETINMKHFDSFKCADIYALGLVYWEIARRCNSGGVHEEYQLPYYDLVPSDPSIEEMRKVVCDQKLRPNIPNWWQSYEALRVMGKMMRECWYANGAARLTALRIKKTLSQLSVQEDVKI
B5: Mothers against decapentaplegic homolog 4 (Homo sapiens), Q13485 (parent)
chain: B1 chain
partner: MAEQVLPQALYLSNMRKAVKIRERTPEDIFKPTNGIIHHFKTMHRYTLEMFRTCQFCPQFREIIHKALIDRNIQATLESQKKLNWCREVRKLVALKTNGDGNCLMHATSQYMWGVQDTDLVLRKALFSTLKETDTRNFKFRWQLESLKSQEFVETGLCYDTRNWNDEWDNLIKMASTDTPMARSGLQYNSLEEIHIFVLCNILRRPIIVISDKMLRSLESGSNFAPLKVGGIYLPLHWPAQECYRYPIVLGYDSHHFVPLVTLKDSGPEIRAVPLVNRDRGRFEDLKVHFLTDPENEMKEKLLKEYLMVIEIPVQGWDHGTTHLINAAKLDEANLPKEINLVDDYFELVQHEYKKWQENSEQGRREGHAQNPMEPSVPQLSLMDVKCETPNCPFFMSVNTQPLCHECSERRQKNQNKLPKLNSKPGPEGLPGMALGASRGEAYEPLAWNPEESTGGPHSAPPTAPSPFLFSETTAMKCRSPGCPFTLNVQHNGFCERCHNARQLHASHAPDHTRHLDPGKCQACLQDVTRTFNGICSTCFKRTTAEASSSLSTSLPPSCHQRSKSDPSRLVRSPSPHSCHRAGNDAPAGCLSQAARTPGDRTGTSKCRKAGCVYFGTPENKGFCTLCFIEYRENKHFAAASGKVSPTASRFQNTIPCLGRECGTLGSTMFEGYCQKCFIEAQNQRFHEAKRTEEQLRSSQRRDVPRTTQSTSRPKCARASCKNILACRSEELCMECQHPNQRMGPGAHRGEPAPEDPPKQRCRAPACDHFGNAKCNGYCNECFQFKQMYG

In the first assay the parent is B1. As to conditions: with zn483_human ZNF483, Q8TF39.
As for R361C, the “effect of a mutation on the interaction” value is listed as “with no effect”.

In a further assay the parent is B1. To be noted: with zn483_human ZNF483, Q8TF39. This is another data set of the same source.
For the variant R361H, the “effect of a mutation on the interaction” value is “with no effect”.

Variants of B2 are the subject of the next assay. To be noted: with plcg2_human PLCG2, P16885.
As to R361C, the “effect of a mutation on the interaction” value is reported as “with no effect”.

The variants in a further assay derive from B3. As to conditions: with snapn_human SNAPIN.
Regarding R361H, the “effect of a mutation on the interaction” value was “with no effect”.

In the next assay the parent is B4. As to conditions: with acv1b_human ACVR1B.
Consider MSRVPSPPPPAEMSSGPVAESWCYTQIKVVKFSYMWTINNFSFCREEMGEVIKSSTFSSGANDKLKWCLRVNPKGLDEESKDYLSLYLLLVSCPKSEVRAKCKFSILNAKGEETKAMESQRAYRFVQGKDWGFKKFIRRDFLLDEANGLLPDDKLTLFCEVSVVQDSVNISGQNTMNMVKVPECRLADELGGLWENSRFTDCCLCVAGQEFQAHKAILAARSPVFSAMFEHEMEESKKNRVEINDVEPEVFKEMMCFIYTGKAPNLDKMADDLLAAADKYALERLKVMCEDALCSNLSVENAAEILILADLHSADQLKTQAVDFINYHASDVLETSGWKSMVVSHPHLVAEAYRSLASAQCPFLGPPRKRLKQS [F102C], for which the “effect of a mutation on the interaction” value is on record as “with no effect”.

Another assay covers variants of B4. To be noted: with acv1b_human ACVR1B. The source holds these as a separate data set.
For MSRVPSPPPPAEMSSGPVAESWCYTQIKVVKFSYMWTINNFSFCREEMGEVIKSSTFSSGANDKLKWCLRVNPKGLDEESKDYLSLCLLLVSCPKSEVRAKFKFSILNAKGEETKAMESQRAYRFVQGKDWGFKKFIRRDFLLDEANGLLPDDKLTLFCEVSVVQDSVNISGQNTMNMVKVPECRLADELGGLWENSRFTDCCLCVAGQEFQAHKAILAARSPVFSAMFEHEMEESKKNRVEINDVEPEVFKEMMCFIYTGKAPNLDKMADDLLAAADKYALERLKVMCEDALCSNLSVENAAEILILADLHSADQLKTQAVDFINYHASDVLETSGWKSMVVSHPHLVAEAYRSLASAQCPFLGPPRKRLKQS [Y87C], the “effect of a mutation on the interaction” value is recorded as “with no effect”.

Variants of B4 are the subject of the next assay. To be noted: with acv1b_human ACVR1B. The source holds these as a separate data set.
MSRVPSPPPPAEMSSGPVAESWCYTQIKVVKFSYMWTINNFSFCREEMGEVIKSSTFSSGANDKLKWCLRVNPKGLDEESKDYLSLYLLLVSCPKSEVRAKFKFSILNAKGEETKAMESQRAYRFVQGKDWGLKKFIRRDFLLDEANGLLPDDKLTLFCEVSVVQDSVNISGQNTMNMVKVPECRLADELGGLWENSRFTDCCLCVAGQEFQAHKAILAARSPVFSAMFEHEMEESKKNRVEINDVEPEVFKEMMCFIYTGKAPNLDKMADDLLAAADKYALERLKVMCEDALCSNLSVENAAEILILADLHSADQLKTQAVDFINYHASDVLETSGWKSMVVSHPHLVAEAYRSLASAQCPFLGPPRKRLKQS [F133L]: the “effect of a mutation on the interaction” value is reported as “with no effect”.

Variants of B4 are the subject of another assay. As to conditions: with acv1b_human ACVR1B. This is another data set of the same source.
For the variant MSRVPSPPPPAEMSSGPVAESWCYTQIKVVKFSYMWTINNFSFCREEMGEVIKSSTFSSGANDKLKWCLRVNPKGLDEESKDYLSLYLLLVSCPKSEVRAKFKFSILNAKGEETKAMESQRAYRFVQGKDWGVKKFIRRDFLLDEANGLLPDDKLTLFCEVSVVQDSVNISGQNTMNMVKVPECRLADELGGLWENSRFTDCCLCVAGQEFQAHKAILAARSPVFSAMFEHEMEESKKNRVEINDVEPEVFKEMMCFIYTGKAPNLDKMADDLLAAADKYALERLKVMCEDALCSNLSVENAAEILILADLHSADQLKTQAVDFINYHASDVLETSGWKSMVVSHPHLVAEAYRSLASAQCPFLGPPRKRLKQS [F133V], the “effect of a mutation on the interaction” value is “with no effect”.

Variants of B5 are the subject of another assay. As to conditions: with tnap3_human TNFAIP3, P21580.
Turning to G386D, the “effect of a mutation on the interaction” value is recorded as “with no effect”.
